The assay addresses T1, endogenous NIBP (NIK and IKK2 Binding Protein) in MCF7 cells (human (MCF7 cells; species not printed …, UniProt Q96Q05 1-1148, limits assumed).
T1 construct: Immunoprecipitated from whole cell lysate with anti-NIBP antibody
In words: co-immunoprecipitation with anti-NIBP antibody from MCF7 lysate, immunoblot anti-IKK1/2 and anti-IKK1. From the text:
Endogenous NIBP interacts with endogenous IKK2 in breast cancer cells. NIBP association with IKK2, but not IKK1, occurred in MCF7 cells. The level of IKK1 was confirmed by immunoblotting of the same blot (without stripping) with a specific anti-IKK1 antibody. The IKK2 co-immunoprecipitated with NIBP was phosphorylated as shown by the band shift compared to the input and the immunoblotting with anti-phospho IKK1/2(Ser-177/181) antibody (FIG. 4).
A general note: In western blotting, separated proteins are transferred to a membrane and probed.

T1 sequence (Q96Q05 whole entry): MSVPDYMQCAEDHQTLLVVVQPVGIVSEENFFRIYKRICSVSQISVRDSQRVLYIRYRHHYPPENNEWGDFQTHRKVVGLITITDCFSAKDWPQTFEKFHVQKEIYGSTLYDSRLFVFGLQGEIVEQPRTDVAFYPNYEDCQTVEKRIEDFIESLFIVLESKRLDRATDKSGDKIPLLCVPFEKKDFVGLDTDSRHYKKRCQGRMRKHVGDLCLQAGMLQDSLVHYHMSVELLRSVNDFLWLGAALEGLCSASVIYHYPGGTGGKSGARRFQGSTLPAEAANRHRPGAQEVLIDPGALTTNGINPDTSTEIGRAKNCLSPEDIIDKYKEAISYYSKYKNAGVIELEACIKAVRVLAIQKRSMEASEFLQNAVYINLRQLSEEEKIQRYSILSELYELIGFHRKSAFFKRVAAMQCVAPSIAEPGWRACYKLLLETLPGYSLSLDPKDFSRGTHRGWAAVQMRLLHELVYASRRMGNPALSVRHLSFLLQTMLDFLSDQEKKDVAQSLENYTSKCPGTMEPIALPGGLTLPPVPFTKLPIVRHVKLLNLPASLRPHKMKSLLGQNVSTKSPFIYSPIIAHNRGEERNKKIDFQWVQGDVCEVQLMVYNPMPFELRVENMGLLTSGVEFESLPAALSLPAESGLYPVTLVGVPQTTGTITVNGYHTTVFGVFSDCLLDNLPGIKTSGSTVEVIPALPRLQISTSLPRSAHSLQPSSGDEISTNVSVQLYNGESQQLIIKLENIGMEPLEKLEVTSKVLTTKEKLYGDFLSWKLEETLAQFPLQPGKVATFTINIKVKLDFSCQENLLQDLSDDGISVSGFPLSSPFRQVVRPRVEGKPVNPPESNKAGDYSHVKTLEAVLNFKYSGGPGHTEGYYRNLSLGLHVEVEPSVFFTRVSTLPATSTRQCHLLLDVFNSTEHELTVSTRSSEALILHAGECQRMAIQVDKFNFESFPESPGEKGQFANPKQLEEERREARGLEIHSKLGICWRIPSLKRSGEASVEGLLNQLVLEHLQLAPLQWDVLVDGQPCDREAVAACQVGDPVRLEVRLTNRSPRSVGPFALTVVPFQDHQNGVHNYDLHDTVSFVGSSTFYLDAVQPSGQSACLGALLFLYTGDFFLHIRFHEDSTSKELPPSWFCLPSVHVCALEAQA

B1: endogenous IKK1 in MCF7 cells (enzyme, UniProt O15111 1-745, looked up)
chain: MERPPGLRPGAGGPWEMRERLGTGGFGNVCLYQHRELDLKIAIKSCRLELSTKNRERWCHEIQIMKKLNHANVVKACDVPEELNILIHDVPLLAMEYCSGGDLRKLLNKPENCCGLKESQILSLLSDIGSGIRYLHENKIIHRDLKPENIVLQDVGGKIIHKIIDLGYAKDVDQGSLCTSFVGTLQYLAPELFENKPYTATVDYWSFGTMVFECIAGYRPFLHHLQPFTWHEKIKKKDPKCIFACEEMSGEVRFSSHLPQPNSLCSLVVEPMENWLQLMLNWDPQQRGGPVDLTLKQPRCFVLMDHILNLKIVHILNMTSAKIISFLLPPDESLHSLQSRIERETGINTGSQELLSETGISLDPRKPASQCVLDGVRGCDSYMVYLFDKSKTVYEGPFASRSLSDCVNYIVQDSKIQLPIIQLRKVWAEAVHYVSGLKEDYSRLFQGQRAAMLSLLRYNANLTKMKNTLISASQQLKAKLEFFHKSIQLDLERYSEQMTYGISSEKMLKAWKEMEEKAIHYAEVGVIGYLEDQIMSLHAEIMELQKSPYGRRQGDLMESLEQRAIDLYKQLKHRPSDHSYSDSTEMVKIIVHTVQSQDRVLKELFGHLSKLLGCKQKIIDLLPKVEVALSNIKEADNTVMFMQGKRQKEIWHLLKIACTQSSARSLVGSSLEGAVTPQTSAWLPPTSAEHDHSLSCVVTPQDGETSAQMIEENLNCLGHLSTIIHEANEEQGNSMMNLDWSWLTE
notes: Endogenous protein in cell lysate
Turning to B1, the binding result is on record as “no binding”.

The record behind these values is patent US20120258539A1 (TEMPLE UNIVERSITY OF THE COMMONWEALTH OF HIGHER EDUCATION …, published 2012).
